# Article PMC7127797 (Virus Research, 2004)
# B1: SARS-CoV membrane (M) protein in the pVP16 vector (pVP16-M) (natural protein)
# chain: MADNGTITVEELKQLLEQWNLVIGFLFLAWIMLLQFAYSNRNRFLYIIKLVFLWLLWPVTLACFVLAAVYRINWVTGGIAIAMACIVGLMWLSYFVASFRLFARTRSMWSFNPETNILLNVPLRGTIVTRPLMESELVIGAVIIRGHLRMAGHSLGRCDIKDLPKEITVATSRTLSYYKLGASQRVGTDSGFAAYNRYRIGNYKLNTDHAGSNDNIALLVQ
# Target: SARS-CoV nucleocapsid (N) protein, full length, in the pM vector (pM-N) (SARS-CoV, UniProt P59595 1-422)
# Assay: two-hybrid
# SARS-CoV nucleocapsid (N) protein, full length, in the pM vector (pM-N), sequence (P59595 whole entry): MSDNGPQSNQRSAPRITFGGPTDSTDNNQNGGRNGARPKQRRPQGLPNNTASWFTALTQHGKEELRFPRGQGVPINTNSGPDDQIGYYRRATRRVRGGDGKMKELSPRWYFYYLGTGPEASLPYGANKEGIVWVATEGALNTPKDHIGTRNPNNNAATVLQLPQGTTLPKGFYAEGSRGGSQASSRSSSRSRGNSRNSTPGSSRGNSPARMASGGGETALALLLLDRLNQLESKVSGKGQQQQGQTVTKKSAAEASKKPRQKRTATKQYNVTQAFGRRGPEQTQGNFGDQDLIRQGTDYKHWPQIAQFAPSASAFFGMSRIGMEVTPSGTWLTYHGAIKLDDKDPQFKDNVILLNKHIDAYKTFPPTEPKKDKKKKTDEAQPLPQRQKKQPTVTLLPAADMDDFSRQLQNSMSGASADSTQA
binder,measurement,value
B1,fold chemiluminescence (SEAP) over controls,> 5 fold
